One data set addresses RNase A (UniProt P61823). The data set is described as follows: cell-based or functional assay.
The target in data set [1] is T1, Murine RNase Inhibitor (New England Biolabs, Ipswich, MA), Q91VI7.
T1 chain: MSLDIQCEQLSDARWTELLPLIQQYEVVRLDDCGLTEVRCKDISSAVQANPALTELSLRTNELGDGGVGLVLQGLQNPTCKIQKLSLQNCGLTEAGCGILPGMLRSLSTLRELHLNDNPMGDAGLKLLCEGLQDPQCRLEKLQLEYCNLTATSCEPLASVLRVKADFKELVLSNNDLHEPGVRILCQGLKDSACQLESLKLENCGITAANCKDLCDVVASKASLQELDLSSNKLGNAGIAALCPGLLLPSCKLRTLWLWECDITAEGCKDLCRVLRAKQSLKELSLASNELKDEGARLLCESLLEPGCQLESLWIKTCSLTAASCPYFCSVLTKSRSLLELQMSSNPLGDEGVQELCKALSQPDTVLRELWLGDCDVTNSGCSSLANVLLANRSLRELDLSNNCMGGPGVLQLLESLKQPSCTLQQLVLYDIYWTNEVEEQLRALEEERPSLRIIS

Regarding “SUPERase-In (ThermoFisher Scientific, Waltham, MA)”, the inhibition of RNA degradation (gel), reaction at 60° C. in the data set with RNase A was < 50%.

B1: RNase A (protein)
chain: KETAAAKFERQHMDSSTSAASSSNYCNQMMKSRNLTKDRCKPVNTFVHESLADVQAVCSQKNVACKNGQTNCYQSYSTMSITDCRETGSSKYPNCAYKTTQANKHIIVACEGNPYVPVHFDASV
For B1, the “RNA digestion (fluorescence of RNaseAlert RNA substrate, 37° C., 90 minutes)” value in data set [1] was “Three RNase A aptamers and Murine RNase Inhibitor are able to inhibit RNA digestion, but Murine Inhibitor show a slows a loss in RNase inhibition over time”.

These data come from patent US11827885.
